Molecular target: T1, BG505 gp120 (HIV-1 isolate BG505)
T1 construct: also called monomeric gp120; the monomer
Experiment: ELISA; plates coated with 250 ng of BG505 gp120; monoclonal antibodies from 20 μg/mL in seven 6-fold dilutions; detected with alkaline phosphatase conjugated anti-human F(ab')2; room temperature
Settings: both partners purified

B1: Bess2 (antibody)
VH: KVQLRESGPSLVKPSQTLSLTCTVSGFSLSDKAVGWVRQAPGKALEWLGSIDTGGSTGYNPGLKSRLSITKDNSKSQVSLSVTSVTTEDSTTYYCTTVHQTTKTTKKCPDGYNYDDGCASDLGCGEADCCCYGGYDEYGGYLYSCCSYSYTYEWYVDAWGQGLLVTVSS
VL: QAVLNQPSSVSGSLGQRVSITCSGSSSNVGNGYVSWYQLIPGSAPRTLIYGDTSRASGVPDRFSGSRSGNTATLTISSLQAEDEADYFCASAEDSSSNAVFGSGTTLTVL
notes: also called Bess2 mAb; source: Expi293 or 293F cells, transfected, purified (Protein A Sepharose or Praesto AP)
**Q.** Does B1 bind?
**A.** no binding (tested: 20 μg/mL (highest concentration))

B2: Bess6 (antibody)
VH: KVQLRESGPSLVKPSQTLSLICTVSGFSLSDKAVGWVRQAPGKALEWLGSIDTAGTTDHHPGLKSRLSITKDNSKNQVSLSLSSVTTEDSATYYCTTVHQPTSKQYSCPDGASVRTGGGWRWLCRGHDCCCVVEYIAYEQTPCTLTRTYEWHIDAWGQGLLVTVSS
VL: B1 VL
notes: also called Bess6 mAb; source: Expi293 or 293F cells, transfected, purified (Protein A Sepharose or Praesto AP)
**Q.** Does B2 bind?
**A.** no binding (tested: 20 μg/mL (highest concentration))

From article PMC11412654, “Immunization of cows with HIV envelope trimers generates broadly neutralizing antibodies to the V2-apex from the ultralong CDRH3 repertoire” (PLOS Pathogens, 2024)
